# Assay results: the RNAGym collection of RNA variant scans (doi:10.1073/pnas.2313332121)
# B1: TPR t1 (parent)
# chain: GACCAAUCUGCCCUCAGAGCUCGAGAACAUCUUCGGAUGCAGAGGAGGCAGGCUUCGGUGGCGCGAUAGCGCCAACGUCCUCAACCUCCAAUGCAUCCCACCACAUGAUGAUGCCUGAAGAGCCUUGGUUUUUUG
# Variants of: B1
# Experiment: polymerase ribozyme fitness, log enrichment relative to wild type (log ratio); higher = more active; in vitro selection for triplet polymerase activity
# Outline: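 Both subunits of a heterodimeric triplet polymerase ribozyme were given their own mutant library, built by PCR and transcribed. Each library was annealed with a biotinylated primer, the partner subunit and triplets, incubated frozen at −7 °C, and its extended constructs gel-excised, captured on streptavidin beads and amplified by RT-PCR, all in one round done in triplicate. Fitness is the logarithm of genotype enrichment relative to wild-type enrichment, with replicates averaged by inverse-variance weighting. That logarithm is base 2, and Illumina-sequenced genotypes needed ≥10 input reads and ≥1 read per output.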
row,Variant,polymerase ribozyme fitness (log ratio)
1,GACCAAUCUGCCCUCAGAGCUCGAGAACAUCUUCGGAUGCAGAGGAGGCAGGCUUCGGUGGCGCGAUAGCGCCAACGUCCUGAACCUCCAAUGCAUCCCACCACAUGAUGAUGCCUGAAGAGUCUUGGUUUUUUG [C82G C123U],0.314
2,GACCAAUCGGCCCUCAGAGCUCGAGAACAUCUUCGGAUGCAGAGGAGGCAGGCUUAGGUGGCGCGCUAGCGUCAACGUCCUCAACCUCCAAUGCAUCCCACCACAUGAUGAUGCCUGAAGAGCCUUGGUUUUUUG [U9G C56A A66C C72U],-1.3
3,GACCAAUCUGCCCUCAGAGCUCGAGAACAUCUUCAGAUGCAGAGGAGCCAGGCUUAGGUGGCGCGAUAGCGCCAACGUCCUCAACCUCCAAUGCAUCCCACCACAUGAUGAUGCCUGAAGAGGCUUGGUUUUUUG [G35A G48C C56A C123G],-2.99
4,GACCAAUCUGCCCUCAGAGCUCGAGAACAUCUUCGGAUGCAGAGGAGGCAGGCUUCGGUGGCGCGAUAGUGCCAACGUCCUCAACCUCCAAUGCAUCCCACCACAUGAUCAUGCCUGAAGAGCCUUGGUUUUUUG [C70U G110C],-4.32
5,GACCAAUCUGCCCUCAGAGCUCGAGAACAUCUUCGGAUCCAGAGGAGGCCGGCUUGGGUGGCGCGAUAGCACCAACAUCCUCAACCUCCUAUGCAACCCACCACAUGAUGAUGCCUGAAGAGCCUUGGUUUUUUG [G39C A50C C56G G71A G77A A90U U96A],-4.32
6,GACCAAUCUGCCCUCAGAGCUCGAGAACAUCUUCGGAUGCAGAGGAGUCAGGCUUCGGAUGCGCGAUAGCGCCAACGUCCUCAACCUCCAAUGCAUCCCACCACAUGAUGAUGCCUGAAGAAACUUGGUUUUUUG [G48U U59A G60U G122A C123A],-1.51
7,GACCAAACUGCCCUCAGAGCUCGAAAACAUCUUCGGAUGCAUAGGAGGCUGGCUUCGGUGACGCGAUAGCGCCAACGUCCUCAAGCUCCCAUGCAUCCCACCACAUGAUGAUGCCUGAAGAGUCUUGGUUUUGUG [U7A G25A G42U A50U G61A C85G A90C C123U U133G],-8.16
8,GACCAAUCUGCCCUCAGAGCUCGAGAACAUCUUCGGAUGCAGAGGAGGCAGGCUUCGGUGGGGCGAUAGCGCCAACGUCCUCAACCUCCAAUGCUUCCCACCACAUGAUGAUGCCUGAAGAGCCUUGGUUUUUUG [C62G A95U],-2.37
9,GACCAAUCUGCCCUCAGAGCUCGAGAAAAUCUUCGGAUGCUGAGGAGGCAGGGUUCGGUGGCGCGAUAGCGCCAACGUCCUCAACCUCCAAUGCAUCCCACCAGAUGAUAAUGCCUGAAGAGCCUUGGUUUUUUG [C28A A41U C53G C104G G110A],-6.89
10,GACCAAUCCGCCCUCAGAGCUCGAGAACAUCUUCGAAUGCAGAGGAGGCAGGCUUCGGUGGCGCGAUAGCGCCAACGUCCUCAAUCUCCAAUGCAUCCCACCACAUGAUGAUGCCUGAAGAGACUUGGUUUUUUG [U9C G36A C85U C123A],0.00121
11,GACCAAUCUGCCCUCAGAGCUCGAGAACAUCUUCGGAUGCAGAGGAGGCAGGGCUCGGUGGCGCGAUAGCGCCAACGUCCUCAACCUCCAAUGCAUCCCACCACAUGAUGAUGCCUGAAGCGCCUUGGUUUUUUG [C53G U54C A121C],1.78
12,GACCAAUCUGCCCUCAGAGCUCGAGAACAUCUUCGGAUGCAGAGGAGGCAGGCUUCGGUAGCGCGAUAGCGCCAACGUCCUCAACUUCCAAUGCAUCCCACCACAUGAUGAUGCCUGAAGAGCCUUGGUUUUUUG [G60A C86U],-0.149
13,GACCAAUCUGCCCUCAGAGCUCGAGAACAUCUUCGGAUGGAGAGGAGGCAGGCUUCGGUGGCGCGAUAACGCCAACGUCCUCACCCUCCAAUGCAUCCCACCACAUGAUGAUGCCUGAAGAGCCUUGGUUUUUUG [C40G G69A A84C],-3.83
14,GACCAAUCUGCCCUCAGAGCUCGAGAACAUCUUCGGAUGCAGAGGAGGCAGGCUUCGGUGGCGCGAUGGCACCAACGUCCUCAACCUCCAAUGCCUCCCACCACAUGAUGAUGCCUGAAGAGCCUUGGUUUUUUG [A68G G71A A95C],-6.02
15,GUCCAAUCUGCCCUCAGAGCUCGAGAACAUCUUCGGAUGCAGAGGAGGCAGGCUUCGGCGGGGCGAUAGCGCCAACGUCCUCAACCUCCAAUGUAUCCCACCACAUGAUGAUGCCUGAAGAGACGUGGUUUUUUG [A2U U59C C62G C94U C123A U125G],-6.19
16,GACCAAUCUGCCCUCAGAGCUCGAGAACAUCUUCGGAUGCAGAAGAGGCAGGCUUCGGUGGCGCGAUAGCGCCAACGUCAUCAACCUCCAAUGCAUCCCACCACAUGAUGAUGCCUGAAGAGCCUUGGUUUUUUG [G44A C80A],-3.93
17,GACCAAUCUGCCCUCAGAGCUCGAGAACAUCUUCGGAUGCAUAGGAGGCAGGCUUCGGUGGCGCGAUAGCGCCAACGACCUCAAUCUCCAAUGCAUCCCACCACAUGAUGAUGCCUGAAGAGCCUUGGUUUUUUG [G42U U78A C85U],-2.63
18,GACCAAUCUGCCCUCAGAGCUCGAGAACAUCUUCGGAUGCAGAGGAGGCAGGCUUCGGUGGCGCGAUAGCACCAACGUCCUCAAGCUCCAAUGCAUCCCACCACAUGAUGAUGCCUGAAGAGCCUCGGUUUUUUG [G71A C85G U126C],-2.15
19,GACCAAUAUGCCCUCAGAGCUCGAGAACAUCUUCGGAUGCAGAGGAGGCAGGCUUCGGUGGCGCGAUAGCGCCAACGUGCUCAACCUCCAAUGCAUCCCACCACAUGAUGAUGCCUGAAGAGCCUUGGUUUUUUG [C8A C79G],-1.65
20,GACCAAUCUGCCCUCAGAGCUCGAGAACAUCUUCGGAUGCAGAGGUGGCAGGCUUCGGUGGCGCGAUAGCGCGAACUUCCUCAACCUCCAAUGCAUCCCAACAUAUGAUGAUGCCUGAAGAGCCUUGGUUUUUUG [A46U C73G G77U C101A C104U],-2.96
21,GACCAAUCUACCCUCAGAGCUCGAGAACAUCUUCGGAUGCAGAGGAGGCAGGCAUCGGUGGCGCGAUAGCGCCAACGUCCUCAACCUCCAAUGCAUCCCACCACAUGAUGAUGCCUGAGGAGCCUUGGUUUUUUG [G10A U54A A119G],1

row,Variant,polymerase ribozyme fitness (log ratio)
1,GACCAAUCUGCCCUCAGAGCUCGAGAACAUCUUCGGAUGCAGAGGAGGCAGGCUUCGGUGGCGCGAUAGCGCCAACGUCCUCAACCCCCAAUGCAUCCCACCACAUGAUGAUGCCUAAAGAGCCUUGGUUUUUUG [U87C G117A],-1.27
2,GACCAAUCUGCCCUCAGAGCUCGAGAACUUCUUCGGAUGCAGAGGAGACAGGCUUCGGUGGCGCGAUAGCGCCAACGUCCUCAACCUCCAAUGCAUCCCACCACAUGAUGCUGCCUGAAGAGCCUUGGUUUUUUG [A29U G48A A111C],-2.11
3,GACCAAUCUGCCCUCAGAGCUCGAGAACAUCUUCGGAUGCAGAGAAGGCAAGCUUCGGUGGCGCGAUAGCGCCAACGUCCUCAACCUCCAAUGCAUCCCACCACAUGAUGAUGCCUGAAGAGCCUUGGUUUUUUG [G45A G51A],-3.66
4,GACCAAUCUGCCCUCAGAGCUCGAGAACAUCUUCGGAUGCAGAGCAGGCAGGCUUCGGUGGCGCGAUAGCGCUAACGUCCUCAACCUCCAAUGCAUCCCACCACAUGAUGAUGCCUGAAGAGCCUUGGUUUUUUG [G45C C73U],-0.881
5,GACCAAUCUGCCCUCAGAGCUCGAGAACAUCUUCGGAUGCAGAGGAGUCAGGCUUCGGUGGCGAGAUAGCGCCAACGUCCUCAACGUCCAAUGCAUCCCACCACAUGAUGGUGCCUGAAGAGCCUUGGUUUUUUA [G48U C64A C86G A111G G135A],-6.11
6,GACCAAUCUGCCCUCAGAGCUCGAGAACAUCUUCGGAUGCAGAGGAGGCAGACUUCGGUCACGCGAUAGCGCCAACGUCCUCAACCUCCAAUGCAUCCCACCACAUGAUGAUGCCUGAAGAGCCUUGGUUUUUUG [G52A G60C G61A],-4.56
7,GACCAAUCUGCCCUCAGAGCUCGAGAACAUCUUCGGAUGCAGAGGAGGCAGGCUUCGGUGGCGCGAUAGCGCCAACGUCCUCAACCUCCAAUGCCUCCCACCACAUGAUGAUGCCUGAAGAGCCUUGGUUUUUUG [A95C],-0.933
8,GACCAAUCUGCCCUCAGCGCUCGAGAACAUCUUCGGAUGCAGAGGAGGCAGGGUUCGGUUGCGCGAUAGCGCCAACGUCCUCAACCUCCAAUGCAUCCCACCACAUGAUGAUGCCGGAAGAGCCUUGGUUUUUUG [A18C C53G G60U U116G],-2.87
9,GACCAAUCUGCCCUCAGAGCUCGAGAACAUCUUCGGAUGCAGAGGAGGCAGGCUUCGGUGGCGCGAGAGCGCCAACGUCCUAAACCUCCAAUGCAUCCCACCACAUGAUGAUGCCUGAAGAGCCUUGGUUUUUUG [U67G C82A],-6.14
10,GACCAAUCUGGCCUCAGAGCUCGAGAACAUCUUCGGAUGCAGAGGAGGCAGGCUUCGGUGGCGCGAUAGCGCUAACGUCCUCAACCUCCAAUGCAUCCCACCACAUGAUGAUGCCUGAAGAGCCUUGGUUUUUUG [C11G C73U],0.123
11,GAGCAAUCUGCCCUCAGAGCUCGAGAACAUCUUGGGAUGCAGAGGAGGCAGGCUUCGGUGGCGCGAUAGCGCCAAGGUCCUCAACCUCCACUGCAUCCCACCACAUGAGGAUGCCUGAAGAGCCUUGGUUUUUUG [C3G C34G C76G A91C U109G],-6.42
12,GACCAAUCUGCACUCAGAGCUCGAGAACAUCUUCGGAUGCAGAGGAGGCAGGCUUCGGUGGCGCGAUAGCGCCAACGUCCUCAACCUCCAAUGCAUCCCACCACAUGAUGAUGCCUGAAUAGCCUUGGUUUUUUG [C12A G120U],1.57
13,GACCAAUCUGCCCUCAGAGCUCGAGAACAUCUUCGGAUGCAGAGGAGGCAGGCUUCGGUGGCGCGAUAGUGCCAACGUCCUCAACCUCCAAUGCAUCCCACCGCAUGAUGAUGCCUGAAGAGCCUUGGUUUUUUG [C70U A103G],-4.3
14,GUCCAAUCUGCACUCAGAGCUCGAGAACAUCUUCGGAUGCAGAGGAGGCAGGCUGCGGUGACGCGAUAGCGCCAACGUCCUCAACCUCCAAUGCAUCCCACAAUAUGAUGAUGCCUGAAGAGCCUUGGUUUUUUG [A2U C12A U55G G61A C102A C104U],-4.56
15,GACCAAUCUGCCCUCAGAGCUCGAGAACAUCUUCGGAUGCAGAGGAGGCAGGCUUCGGUGGCGCGAUAGCGCCAACGUCCUCAACCUCCAAUGCAGCCCACCACAUGAUUAUGCCUGAAGAGCCUUGGUUUUUUG [U96G G110U],-2.73
16,GACCAAUCUGCCCUCAGAGCUCGAGAACAUCUUCGGAUGCAGAGGAGGCAGGCUUUGGUGGCGCGAUAGCGGCAACGUCCUCAACCUCCAAUGCAUCCCACCACAUGAUGAUGCCUGAAGAGCCUUGGUUUUUUG [C56U C72G],-0.66
17,GAGCAAUCGGCCCUCAGAGCUCGAGAACAUCUUCGGAUGCAGGGGAGGCAGGCUUCGGUGACGCGAUAGCGCCAACGUCCUCAACCUCCAAUGCAUCCCACCACAUGAUGAUGACUGAAGAGCCUUGGUUAUUUG [C3G U9G A43G G61A C114A U131A],-3
18,GACCAAUCUGCCCUCAGAGCACGAGAACAUCUUCGGAUGCAGAGGAGGAAGGCUUAGGUGGCGCGAUAGCGCCAACGUCCUCAACCUCCAAUGCAUCCCACCACAUGAUGAUGCCUGAAGUGCCUUGGUUUUUUG [U21A C49A C56A A121U],0.0625
19,GAUCAAUCUGCCCUCAGAGCUCGAGAACAUCUUCGGAUGCAGAGGAGGCAGGCUUCGGUGGCGCGAUAGCGCAAACGUCCUCAACCUCCAAUGCAUCCCACCACAUGAUGAUGCCUGAAGAGCCUUGGUUUUUUU [C3U C73A G135U],-1.52
20,GACCAAUCUGCCCUCAGAGCUAGAGAACAUGUUCGGAUGCAGAGGAGGCCGGCUUCGGUGGCGCGAUAGGGCCAACGUCCUCAACCUCCAAUGCAUCCCACCACAUGAUGCUGCCUGAAGAGCCUUGGUUUUUUG [C22A C31G A50C C70G A111C],-7.1
21,GAUCAAUCUGCCUUCAGAGCUCGAGAACAUCUUCGGAUGCAGAGGAGGCAGGCUUCGGUGGCGCGAUAGCGCCAACGUCCUCAAUCACCAAUGCCUCCCACCACAUGAUGAUGCCUGAAGAGCCUUGGUUUUUUG [C3U C13U C85U U87A A95C],-2.29
